These results are taken from patent publication US20260132194A1 (XBIOTECH, published 2026).

The assay has as its target T1, recombinant human interleukin 1 alpha (IL-1α) (human, UniProt P01583 113-271).
T1 sequence (looked up): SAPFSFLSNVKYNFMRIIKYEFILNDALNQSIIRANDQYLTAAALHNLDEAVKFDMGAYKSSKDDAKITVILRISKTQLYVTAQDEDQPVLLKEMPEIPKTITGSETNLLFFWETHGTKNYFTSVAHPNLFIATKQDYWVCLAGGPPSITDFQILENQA
In words: cell-based or functional assay.

B1: XIA14 human monoclonal antibody (antibody, V domains shown)
VH: QVQLVQSGAEVKKPGSSVKVSCKASGGRFTNYAILWVRQAPGQGLQWLGGIIPIFDETDHAQDFQDRLTITVDESMTTAYMELSSLRPEDTAIYYCATGSNSYYGLYWGQGTLVTVSS
VL: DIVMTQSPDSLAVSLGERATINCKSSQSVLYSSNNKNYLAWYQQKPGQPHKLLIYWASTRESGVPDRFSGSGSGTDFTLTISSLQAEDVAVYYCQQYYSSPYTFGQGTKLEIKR
Take B1: the “HUVEC-based potency assay IC50 (ICAM-1 expression by flow cytometry)” value was 5 ng/mL.
